Reference: US20210388087A1 (Chugai, published 2021)
Substitutions are numbered along the chain they refer to. Numbers in names are those of the source. Blank lines part the entries; values can stand above or below the binder they belong to.

Biological target: T1, Human CD3eg linker (human)
T1 construct: Single-chain construct; also called recombinant human CD3
T1 chain: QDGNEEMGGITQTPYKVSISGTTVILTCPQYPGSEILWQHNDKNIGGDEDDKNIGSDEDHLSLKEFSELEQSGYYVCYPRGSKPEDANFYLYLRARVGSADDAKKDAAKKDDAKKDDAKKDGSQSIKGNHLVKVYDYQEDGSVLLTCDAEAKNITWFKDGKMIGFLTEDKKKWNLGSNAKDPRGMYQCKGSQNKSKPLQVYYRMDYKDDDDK
Experiment: SPR; fold vs parent H183/L072

- fold change of affinity: 1.1 fold
B1: H183/L072 VL M27eQ (antibody, name in Kabat numbering, V domains shown)
VH: QVQLVESGGGLVQPGRSLRLSCAASGFTFSNAWMHWVRQAPGKGLEWVAQIKDKGNAYAAYYAPSVKGRFTISRDDSKNSIYLQMNSLKTEDTAVYYCHYVHYASASTVLPAFGVDAWGQGTTVTVSS
VL: DIVMTQSPLSLPVTPGEPASISCQASQELVHQNRNTYLHWYQQKPGQAPRLLIYKVSNRFPGVPDRFSGSGSGTDFTLKISRVEAEDVGVYYCAQGTSVPFTFGQGTKLEIK

- fold change of affinity: 1.4 fold
B2: H183/L072 VL N53K (antibody, name in Kabat numbering, V domains shown)
VH: B1 VH
VL: B1 VL with Q32M, N58K

- fold change of affinity: 0.5 fold
B3: H183/L072 VL N53E (antibody, name in Kabat numbering, V domains shown)
VH: B1 VH
VL: B1 VL with Q32M, N58E

- fold change of affinity: 1.5 fold
B4: H183/L072 VL N30R (antibody, name in Kabat numbering, V domains shown)
VH: B1 VH
VL: B1 VL with Q32M, N35R

- fold change of affinity: 0.9 fold
B5: H183/L072 VL N30W (antibody, name in Kabat numbering, V domains shown)
VH: B1 VH
VL: B1 VL with Q32M, N35W

- fold change of affinity: 0.6 fold
B6: H183/L072 VL N53L (antibody, name in Kabat numbering, V domains shown)
VH: B1 VH
VL: B1 VL with Q32M, N58L

- fold change of affinity: 1.2 fold
B7: H183/L072 VL N30Q (antibody, name in Kabat numbering, V domains shown)
VH: B1 VH
VL: B1 VL with Q32M, N35Q

- fold change of affinity: 0.6 fold
B8: H183/L072 VL N53G (antibody, name in Kabat numbering, V domains shown)
VH: B1 VH
VL: B1 VL with Q32M, N58G

- fold change of affinity: 0.3 fold
B9: H183/L072 VL N30A (antibody, name in Kabat numbering, V domains shown)
VH: B1 VH
VL: B1 VL with Q32M, N35A

- fold change of affinity: 0.5 fold
B10: H183/L072 VL N30I (antibody, name in Kabat numbering, V domains shown)
VH: B1 VH
VL: B1 VL with Q32M, N35I

- fold change of affinity: 1.8 fold
B11: H183/L072 VL N53R (antibody, name in Kabat numbering, V domains shown)
VH: B1 VH
VL: B1 VL with Q32M, N58R

- fold change of affinity: 0 fold
B12: H183/L072 VL N28T (antibody, name in Kabat numbering, V domains shown)
VH: B1 VH
VL: B1 VL with Q32M, N33T

- fold change of affinity: 1.2 fold
B13: H183/L072 VL M27eT (antibody, name in Kabat numbering, V domains shown)
VH: B1 VH
VL: B1 VL with Q32T

- fold change of affinity: 1.2 fold
B14: H183/L072 VL N53H (antibody, name in Kabat numbering, V domains shown)
VH: B1 VH
VL: B1 VL with Q32M, N58H

- fold change of affinity: 0.6 fold
B15: H183/L072 VL N53P (antibody, name in Kabat numbering, V domains shown)
VH: B1 VH
VL: B1 VL with Q32M, N58P

- fold change of affinity: 0.8 fold
B16: H183/L072 VL N30H (antibody, name in Kabat numbering, V domains shown)
VH: B1 VH
VL: B1 VL with Q32M, N35H

- fold change of affinity: 1.6 fold
B17: H183/L072 VL N30M (antibody, name in Kabat numbering, V domains shown)
VH: B1 VH
VL: B1 VL with Q32M, N35M

- fold change of affinity: 0 fold
B18: H183/L072 VL N28S (antibody, name in Kabat numbering, V domains shown)
VH: B1 VH
VL: B1 VL with Q32M, N33S

- fold change of affinity: 0.5 fold
B19: H183/L072 VL N30L (antibody, name in Kabat numbering, V domains shown)
VH: B1 VH
VL: B1 VL with Q32M, N35L

- fold change of affinity: 0 fold
B20: H183/L072 VL N30G (antibody, name in Kabat numbering, V domains shown)
VH: B1 VH
VL: B1 VL with Q32M, N35G

- fold change of affinity: 0.1 fold
B21: H183/L072 VL N30T (antibody, name in Kabat numbering, V domains shown)
VH: B1 VH
VL: B1 VL with Q32M, N35T

- fold change of affinity: 0.2 fold
B22: H183/L072 VL N53D (antibody, name in Kabat numbering, V domains shown)
VH: B1 VH
VL: B1 VL with Q32M, N58D

- fold change of affinity: 0.3 fold
B23: H183/L072 VL N30E (antibody, name in Kabat numbering, V domains shown)
VH: B1 VH
VL: B1 VL with Q32M, N35E

- fold change of affinity: 0 fold
B24: H183/L072 VL N28D (antibody, name in Kabat numbering, V domains shown)
VH: B1 VH
VL: B1 VL with Q32M, N33D

- fold change of affinity: 0 fold
B25: H183/L072 VL N28G (antibody, name in Kabat numbering, V domains shown)
VH: B1 VH
VL: B1 VL with Q32M, N33G

- fold change of affinity: 1.2 fold
B26: H183/L072 VL M27eS (antibody, name in Kabat numbering, V domains shown)
VH: B1 VH
VL: B1 VL with Q32S

- fold change of affinity: 0.8 fold
B27: H183/L072 VL N30Y (antibody, name in Kabat numbering, V domains shown)
VH: B1 VH
VL: B1 VL with Q32M, N35Y

- fold change of affinity: 0 fold
B28: H183/L072 VL N28A (antibody, name in Kabat numbering, V domains shown)
VH: B1 VH
VL: B1 VL with Q32M, N33A

- fold change of affinity: 1 fold
B29: H183/L072 VL M27eW (antibody, name in Kabat numbering, V domains shown)
VH: B1 VH
VL: B1 VL with Q32W

- fold change of affinity: 0.6 fold
B30: H183/L072 VL N53A (antibody, name in Kabat numbering, V domains shown)
VH: B1 VH
VL: B1 VL with Q32M, N58A

- fold change of affinity: 0 fold
B31: H183/L072 VL N30S (antibody, name in Kabat numbering, V domains shown)
VH: B1 VH
VL: B1 VL with Q32M, N35S

- fold change of affinity: 0 fold
B32: H183/L072 VL N28E (antibody, name in Kabat numbering, V domains shown)
VH: B1 VH
VL: B1 VL with Q32M, N33E

- fold change of affinity: 0.9 fold
B33: H183/L072 VL N53M (antibody, name in Kabat numbering, V domains shown)
VH: B1 VH
VL: B1 VL with Q32M, N58M

- fold change of affinity: 0.7 fold
B34: H183/L072 VL N53F (antibody, name in Kabat numbering, V domains shown)
VH: B1 VH
VL: B1 VL with Q32M, N58F

- fold change of affinity: 0.9 fold
B35: H183/L072 VL N30F (antibody, name in Kabat numbering, V domains shown)
VH: B1 VH
VL: B1 VL with Q32M, N35F

- fold change of affinity: 0.8 fold
B36: H183/L072 VL N53Q (antibody, name in Kabat numbering, V domains shown)
VH: B1 VH
VL: B1 VL with Q32M, N58Q

- fold change of affinity: 0 fold
B37: H183/L072 VL N28K (antibody, name in Kabat numbering, V domains shown)
VH: B1 VH
VL: B1 VL with Q32M, N33K

- fold change of affinity: 1.4 fold
B38: H183/L072 VL M27eR (antibody, name in Kabat numbering, V domains shown)
VH: B1 VH
VL: B1 VL with Q32R

- fold change of affinity: 0 fold
B39: H183/L072 VL N28Q (antibody, name in Kabat numbering, V domains shown)
VH: B1 VH
VL: B1 VL with Q32M, N33Q

- fold change of affinity: 0.8 fold
B40: H183/L072 VL M27eV (antibody, name in Kabat numbering, V domains shown)
VH: B1 VH
VL: B1 VL with Q32V

- fold change of affinity: 1.3 fold
B41: H183/L072 VL N30K (antibody, name in Kabat numbering, V domains shown)
VH: B1 VH
VL: B1 VL with Q32M, N35K

- fold change of affinity: 0.9 fold
B42: H183/L072 VL M27eY (antibody, name in Kabat numbering, V domains shown)
VH: B1 VH
VL: B1 VL with Q32Y

- fold change of affinity: 0 fold
B43: H183/L072 VL N28H (antibody, name in Kabat numbering, V domains shown)
VH: B1 VH
VL: B1 VL with Q32M, N33H

- fold change of affinity: 0.5 fold
B44: H183/L072 VL N30V (antibody, name in Kabat numbering, V domains shown)
VH: B1 VH
VL: B1 VL with Q32M, N35V

- fold change of affinity: 0.1 fold
B45: H183/L072 VL N30D (antibody, name in Kabat numbering, V domains shown)
VH: B1 VH
VL: B1 VL with Q32M, N35D
